No end group written: not given here.
Key:
[1] = target: T1, HLA-DR7 molecule (DRB1*0701) (human); assay: competition ELISA vs biotin-YKL
T1 chain 1: not shown
T1 chain 2: not shown

[2] = target: T2, HLA-DRB5*0101 molecule (human); assay: competition ELISA vs biotin-HA 306-318
T2 chain 1: not shown
T2 chain 2: not shown

[3] = target: T3, HLA-DR11 molecule (DRB1*1101) (human); assay: competition ELISA vs biotin-HA 306-318
T3 chain 1: not shown
T3 chain 2: not shown

[4] = target: T4, HLA-DR15 molecule (DRB1*1501) (human); assay: competition ELISA vs biotin-A3 152-166
T4 chain 1: not shown
T4 chain 2: not shown

[5] = target: T5, HLA-DRB4*0101 molecule (human); assay: competition ELISA vs biotin-E2/E168
T5 chain 1: not shown
T5 chain 2: not shown

[6] = target: T6, HLA-DR1 molecule (DRB1*0101) (human); assay: competition ELISA vs biotin-HA 306-318
T6 chain 1: not shown
T6 chain 2: not shown

[7] = target: T7, HLA-DR13 molecule (DRB1*1301) (human); assay: competition ELISA vs biotin-B1 21-36
T7 chain 1: not shown
T7 chain 2: not shown

[8] = target: T8, HLA-DR4 molecule (DRB1*0401) (human); assay: competition ELISA vs biotin-HA 306-318
T8 chain 1: not shown
T8 chain 2: not shown

[9] = target: T9, HLA-DR3 molecule (DRB1*0301) (human); assay: competition ELISA vs biotin-MT 2-16
T9 chain 1: not shown
T9 chain 2: not shown

[10] = target: T10, HLA-DRB3*0101 molecule (human); assay: competition ELISA vs biotin-Lol 191-210
T10 chain 1: not shown
T10 chain 2: not shown

Binder	IC50 [1]	IC50 [2]	IC50 [3]	IC50 [4]	IC50 [5]	IC50 [6]	IC50 [7]	IC50 [8]	IC50 [9]	IC50 [10]
RHYCYSLYGTTLEQQ (modifications not checked) [E6 84-98]	3250 nM	900 nM	7000 nM	–	–	–	–	–	–	–
MGTLGIVCPICSQKP (modifications not checked) [E7 84-98]	1250 nM	90 nM	–	425 nM	1750 nM	–	–	–	–	–
TTLEQQYNKPLCDLL (modifications not checked) [E6 93-107]	7750 nM	325 nM	–	18 nM	–	–	–	–	–	–
TELQTTIHDIILECV (modifications not checked) [E6 24-38]	1500 nM	–	–	950 nM	–	425 nM	–	–	–	–
DLLIRCINCQKPLCPEEKQRHL (modifications not checked) [E6(105-126)]	–	30 nM	5000 nM	4000 nM	–	1750 nM	5000 nM	3750 nM	–	–
SLYGTTLEQQYNKPL (modifications not checked) [E6 89-103]	1500 nM	200 nM	–	53 nM	–	125 nM	–	5000 nM	–	–
LDLQPETTDLYCYEQ (modifications not checked) [E7 13-27]	–	–	3500 nM	–	–	4000 nM	–	4250 nM	3500 nM	–
DLYCYEQLNDSSEEEDEIDG (modifications not checked) [E7(21-40)]	–	–	–	5300 nM	–	–	–	1750 nM	4600 nM	–
QQYNKPLCDLLIRCI (modifications not checked) [E6 97-111]	–	5500 nM	–	4000 nM	–	575 nM	–	325 nM	1230 nM	–
ERPRKLPQLCTELQTTIHDII (modifications not checked) [E6(14-34)]	225 nM	–	–	800 nM	–	3500 nM	–	–	550 nM	1450 nM
RDLCIVYRDGNPYAV (modifications not checked) [E6 55-69]	–	–	250 nM	55 nM	–	1500 nM	–	–	–	–
LCVQSTHVDIRTLED (modifications not checked) [E7 67-81]	1500 nM	–	–	950 nM	–	7000 nM	–	7500 nM	–	–
LRLCVQSTHVDIRTLEDLLMGTL (modifications not checked) [E7(65-87)]	900 nM	–	–	470 nM	–	650 nM	–	650 nM	450 nM	850 nM
PTLHEYMLDLQPETT (modifications not checked) [E7 6-20]	–	–	1500 nM	675 nM	200 nM	750 nM	–	175 nM	–	90 nM
LRREVYDFAFRDLCIVYRDGNPY (modifications not checked) [E6(45-67)]	2330 nM	65 nM	125 nM	225 nM	–	–	–	–	–	2500 nM
QQLLRREVYDFAFRD (modifications not checked) [E6 42-56]	–	–	6000 nM	3250 nM	55 nM	–	375 nM	–	–	–
SEYRHYCYSLYGTTL (modifications not checked) [E6 81-95]	–	2500 nM	725 nM	–	–	10 nM	–	–	–	–
QRFHNIRGRWTGRCM (modifications not checked) [E6 130-144]	950 nM	75 nM	115 nM	–	–	4 nM	–	–	–	–
FYSKISEYRHYCYSL (modifications not checked) [E6 76-90]	–	1050 nM	–	–	–	125 nM	225 nM	–	–	–
RTLEDLLMGTLGIVC (modifications not checked) [E7 77-91]	55 nM	700 nM	–	–	–	–	–	–	–	–
HLDKKQRFHNIRGR (modifications not checked) [E6 124-138]	–	75 nM	475 nM	–	–	10 nM	–	–	–	–
MHGDTPTLHEYMLDLQPETT (modifications not checked) [E7(1-20)]	–	–	1750 nM	125 nM	4 nM	2500 nM	–	–	–	35 nM
KCDSTLRLCVQSTHV (modifications not checked) [E7(60-74)]	900 nM	200 nM	7000 nM	–	–	5000 nM	–	–	–	–
EKQRHLDKKQRFHNIRGRWT (modifications not checked) [E6(121-140)]	200 nM	85 nM	350 nM	–	–	125 nM	1130 nM	–	–	–
TERVRLVTRHIYNREE (not fully specified) [B1 21-36 (nonbiotinylated)]	–	–	–	–	–	–	330 nM	–	–	–
MHQKRTAMFQDPQERPRKLPQL (modifications not checked) [E6(1-22)]	–	–	–	–	–	–	–	–	3500 nM	–
TLHEYMLDLQPETTDLYCYEQ (modifications not checked) [E7(7-27)]	–	–	600 nM	1770 nM	375 nM	–	7500 nM	60 nM	560 nM	8.5 nM
LRLCVQSTHVDIRTL (modifications not checked) [E7 65-79]	600 nM	–	–	–	–	750 nM	–	–	–	–
